Experimental data taken from US20210324359A1, “USE OF GRAM-NEGATIVE LYSIN-ANTIMICROBIAL PEPTIDE (AMP) POLYPEPTIDE CONSTRUCTS IN TREATING ENDOCARDITIS” (priority 2020, published 2021).
Read-outs that look alike come from different tables or passages of the source.

What was measured:
Staphylococcus aureus = test: Daptomycin MIC with […], positive control (Table 10); format: cell-based; settings: for fold increase in MIC with SURVANTA: Staphylococcus aureus
Description: As a positive control, the impact of […] ® on daptomycin (DAP) activity against Staphylococcus aureus was also tested.

[1] = test system: carbapenem-resistant P. aeruginosa strains; test: Resensitization of carbapenem-resistant strains, combinations with imipenem or meropenem (Tables 18-22); format: cell-based, Pseudomonas aeruginosa
Description: Such resensitization may be determined by combining the present lysins or lysin-AMP polypeptide constructs with an antibiotic in a checkerboard assay as described herein. Antibiotic-resistant bacteria, such as carbapenem-resistant P. aeruginosa, are added to the lysin or lysin-AMP polypeptide construct combination. […] See Clinical and Laboratory Standards Institute (CLSI), CLSI. […] M100 Performance Standards for Antimicrobial Susceptibility Testing; 29th Edition. Clinical and Laboratory Standards Institute, Wayne, Pa., which is herein incorporated by reference in its entirety.
Up to seven carbapenem-resistant isolates were assessed. […] See Clinical and Laboratory Standards Institute (CLSI), CLSI. […] M100 Performance Standards for Antimicrobial Susceptibility Testing; 29th Edition. Clinical and Laboratory Standards Institute, Wayne, Pa.

[2] = test system: P. aeruginosa isolate CFS-1292; test: MIC in CAA supplemented with a range of […] concentrations (Table 10); format: cell-based, Pseudomonas aeruginosa
[3] = test system: Pseudomonas aeruginosa strain CFS-1292 (meropenem resistant); settings: for Fold Increase (MIC) in presence of cations: CFS-1292
Description: The activity of selected GN lysins and constructs in the presence of divalent cations was evaluated, and the impact of divalent cations at physiological concentrations was examined in the MIC assay format.

With daptomycin the “fold increase in MIC with SURVANTA” value (Staphylococcus aureus; 0.09% SURVANTA) was 32 fold, the “fold increase in MIC with SURVANTA” value (Staphylococcus aureus; 0.19% SURVANTA) was 32 fold and the “fold increase in MIC with SURVANTA” value (Staphylococcus aureus; 1.56% SURVANTA) was 128 fold. The “fold increase in MIC with SURVANTA” value (Staphylococcus aureus; 3.15% SURVANTA) was 128 fold and the “inhibition by pulmonary surfactant” value (Staphylococcus aureus; SURVANTA 0.09-[…], S. aureus) was “inhibitory to the activity of DAP”.

B1: GN123: lysin obtained from Pseudomonas phage PhiPA3 (SEQ ID NO: 173) (protein)
chain: MTLLKKGDKGDAVKQLQQKLKDLGYTLGVDGNFGNGTDTVVRSFQTKMKLSVDGVVGNGTMSTIDSTLAGIKAWKTSVPFPATNKSRAMAMPTLTEIGRLTNVDPKLLATFCSIESAFDYTAKPYKPDGTVYSSAEGWFQFLDATWDDEVRKHGKQYSFPVDPGRSLRKDPRANGLMGAEFLKGNAAILRPVLGHEPSDTDLYLAHFMGAGGAKQFLMADQNKLAAELFPGPAKANPNIFYKSGNIARTLAEVYAVLDAKVAKHRA
modifications: Pseudomonas phage PhiPA3
With B1 the “resensitization to carbapenems in synergistic combinations” value ([1]; imipenem (IPM) and meropenem (MEM), carbapenem-resistant isolates) was “reductions of IPM and MEM MICS to below breakpoint values”, the “lysin MIC, Combination” value ([1]; in combination with imipenem, isolate PA19) was 0.125 µg/mL and the “lysin MIC, Combination” value ([1]; in combination with imipenem, isolate PA20) was 2 µg/mL. For the same molecule, the “lysin MIC, Combination” value ([1]; in combination with imipenem, isolate PA21) was 1 µg/mL, the “lysin MIC, Combination” value ([1]; in combination with imipenem, isolate PA22) was 1 µg/mL and the “lysin MIC, Combination” value ([1]; in combination with imipenem, isolate PA23) was 2 µg/mL. For the same molecule, the “lysin MIC, Combination” value ([1]; in combination with imipenem, isolate PA24) was 2 µg/mL, the “lysin MIC, Combination” value ([1]; in combination with imipenem, isolate WC-452) was 2 µg/mL and the “lysin MIC, Combination” value ([1]; in combination with meropenem, isolate PA19) was 0.25 µg/mL. For the same molecule, the “lysin MIC, Combination” value ([1]; in combination with meropenem, isolate PA20) was 1 µg/mL, the “lysin MIC, Combination” value ([1]; in combination with meropenem, isolate PA21) was 1 µg/mL and the “lysin MIC, Combination” value ([1]; in combination with meropenem, isolate PA22) was 1 µg/mL. For the same molecule, the “lysin MIC, Combination” value ([1]; in combination with meropenem, isolate PA23) was 1 µg/mL, the “lysin MIC, Combination” value ([1]; in combination with meropenem, isolate PA24) was 0.5 µg/mL and the “lysin MIC, Combination” value ([1]; in combination with meropenem, isolate WC-452) was 1 µg/mL. For the same molecule, the “MIC, Alone” value ([1]; isolate PA19) was 8 µg/mL, the “MIC, Alone” value ([1]; isolate PA20) was 16 µg/mL and the “MIC, Alone” value ([1]; isolate PA21) was 8 µg/mL. The “MIC, Alone” value ([1]; isolate PA22) was 16 µg/mL, the “MIC, Alone” value ([1]; isolate PA23) was 8 µg/mL and the “MIC, Alone” value ([1]; isolate PA24) was 16 µg/mL. For the same molecule, the “MIC, Alone” value ([1]; isolate WC-452) was 16 µg/mL, the FICI ([1]; lysin + imipenem, isolate PA19) was 0.03 and the FICI ([1]; lysin + imipenem, isolate PA20) was 0.188. It also gave an FICI ([1]; lysin + imipenem, isolate PA21) of 0.141, an FICI ([1]; lysin + imipenem, isolate PA22) of 0.188 and an FICI ([1]; lysin + imipenem, isolate PA23) of 0.281. For the same molecule, the FICI ([1]; lysin + imipenem, isolate PA24) was 0.188, the FICI ([1]; lysin + imipenem, isolate WC-452) was 0.188 and the FICI ([1]; lysin + meropenem, isolate PA19) was 0.046. For the same molecule, the FICI ([1]; lysin + meropenem, isolate PA20) was 0.094, the FICI ([1]; lysin + meropenem, isolate PA21) was 0.156 and the FICI ([1]; lysin + meropenem, isolate PA22) was 0.125. It also gave an FICI ([1]; lysin + meropenem, isolate PA23) of 0.156, an FICI ([1]; lysin + meropenem, isolate PA24) of 0.094 and an FICI ([1]; lysin + meropenem, isolate WC-452) of 0.125. The “fold increase in MIC with SURVANTA” value ([2]; 0.09% SURVANTA) was 1 fold, the “fold increase in MIC with SURVANTA” value ([2]; 0.19% SURVANTA) was 1 fold and the “fold increase in MIC with SURVANTA” value ([2]; 1.56% SURVANTA) was 1 fold. For the same molecule, the “fold increase in MIC with SURVANTA” value ([2]; 3.15% SURVANTA) was 2 fold, the “Fold Increase (MIC) in presence of cations” value (“Fold Increase (MIC)” below) ([3]; 25% CAA + […] CaCl2 (high)) was 1 fold and the “Fold Increase (MIC)” value ([3]; 25% CAA + […] CaCl2 (low)) was 1 fold. For the same molecule, the “Fold Increase (MIC)” value ([3]; 25% CAA + […] CaCl2 (medium)) was 1 fold, the “Fold Increase (MIC)” value ([3]; 25% CAA + […] CaCl2 and […] MgCl2) was 1 fold and the “Fold Increase (MIC)” value ([3]; 25% CAA + […] MgCl2 (high)) was 1 fold. For the same molecule, the “Fold Increase (MIC)” value ([3]; 25% CAA + […] MgCl2 (low)) was 1 fold, the “Fold Increase (MIC)” value ([3]; 25% CAA + […] MgCl2 (medium)) was 1 fold and the “MIC in 25% CAA” value ([3]; strain CFS-1292, no added cations) was 2 µg/mL.
